Assay results: patent US20200283773

Molecular target: nucleolin on surface of HCT116 p53-/- cells (Homo sapiens) (UniProt P19338)
Experiment: flow
Settings: 2'-F pyrimidines, unit inferred

Sequence of nucleolin on surface of HCT116 p53-/- cells (Homo sapiens) (P19338 2-710): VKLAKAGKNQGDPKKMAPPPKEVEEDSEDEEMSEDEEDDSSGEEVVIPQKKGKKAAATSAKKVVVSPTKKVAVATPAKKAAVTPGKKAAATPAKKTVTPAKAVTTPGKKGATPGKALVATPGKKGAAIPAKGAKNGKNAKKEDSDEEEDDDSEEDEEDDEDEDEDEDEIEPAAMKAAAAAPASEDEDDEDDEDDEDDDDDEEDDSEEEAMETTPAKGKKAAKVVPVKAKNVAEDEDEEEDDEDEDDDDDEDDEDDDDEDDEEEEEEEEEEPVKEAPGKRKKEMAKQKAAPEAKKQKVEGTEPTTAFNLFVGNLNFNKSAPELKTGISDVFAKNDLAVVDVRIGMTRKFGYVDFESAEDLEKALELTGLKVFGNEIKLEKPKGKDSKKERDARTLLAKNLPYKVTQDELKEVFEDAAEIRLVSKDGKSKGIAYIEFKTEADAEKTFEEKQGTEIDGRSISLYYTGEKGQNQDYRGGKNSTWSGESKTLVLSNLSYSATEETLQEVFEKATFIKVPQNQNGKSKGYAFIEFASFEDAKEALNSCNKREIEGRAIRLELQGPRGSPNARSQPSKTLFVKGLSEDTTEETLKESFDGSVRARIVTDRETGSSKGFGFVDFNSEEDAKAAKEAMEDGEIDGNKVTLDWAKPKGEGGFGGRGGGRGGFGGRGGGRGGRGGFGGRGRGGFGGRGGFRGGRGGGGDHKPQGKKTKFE

| Sequence | Kd (DL650-labeled Ev5, HCT116 p53-/- cells, Bmax 2.064) [nM] | Kd (DL650-labeled Ev3, HCT116 p53-/- cells, Bmax 3.214) [nM] |
| --- | --- | --- |
| GGAAGAGGGAUGGGCACGGUCCAGCGCUAACUGUACCUGCUGUGCCACCCACC [Ev5] | 50.7 |  |
| GGGAGAGAGGAAGAGGGAUGGGCACGGUCCAGCGCUAACUGUACCUGCUGUGCCACCCACCG [Ev3] |  | 119 |
